In patent publication US20210002358A1 one finds K18 aggregate formation, FRET-positive HEK cells counted by FACS data, which are given here for one molecule.

The experiment deals with tau seeds in spinal cord homogenates of P301S transgenic mice (aggregated transgenic human tau) (human), P10636. The experiment is described as follows: cell-based or functional assay.
tau seeds in spinal cord homogenates of P301S transgenic mice (aggregated transgenic human tau) (human), P10636, sequence (P10636 other isoform, or with tags, fused parts or gaps P301S P301S): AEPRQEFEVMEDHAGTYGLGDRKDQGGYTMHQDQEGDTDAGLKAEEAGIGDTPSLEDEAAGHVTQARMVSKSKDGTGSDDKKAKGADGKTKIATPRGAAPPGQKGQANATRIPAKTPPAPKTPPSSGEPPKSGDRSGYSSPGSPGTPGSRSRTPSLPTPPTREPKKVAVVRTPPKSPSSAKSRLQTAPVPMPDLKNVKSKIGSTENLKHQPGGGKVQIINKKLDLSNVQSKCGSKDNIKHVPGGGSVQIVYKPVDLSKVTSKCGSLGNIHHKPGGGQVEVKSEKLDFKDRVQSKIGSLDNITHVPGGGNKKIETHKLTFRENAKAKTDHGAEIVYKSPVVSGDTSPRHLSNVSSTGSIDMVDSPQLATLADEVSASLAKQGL

B1: PT82 mAb (recombinantly expressed, mouse IgG2a/kappa) (antibody, V domains shown)
VH: EVKLEESGGGLVQPGGSMKLSCVASGFTFSNYWMNWIRQSPEKGLEWVAQIRLQSDNYATRYAESVKGRFTISRDESKTSVYLQMNNLRTEDTGIYYCTGGTTYWGQGTLVTVSA
VL: DIVMTQSQKFMSTSVGDRVSITCKASQNVGTAVAWYQQKPGQSPKLLIYSASIRYTGVPDRFTGSGSGTDFTLTINYMQSEDLADYFCQQFSSYPYTFGGGTKLEIK
B1 displayed a K18 aggregate formation, FRET-positive HEK cells counted by FACS of 3 nM.
